Measurements reported in the supplement of paper PMC7125110.
± gives the standard error. Variants at the floor of the assay were thinned out.

B1: glmS ribozyme (parent)
chain: AUAAAAGCGCCAGAACUACAGAAAUGUAGUUGACGAGGAGGAGGUUUAUCGAAUUUUCGGCGGAUGCCUCCAAA

Key:
Conditions in all cases: with glucosamine-6-phosphate
glucosamine-6-phosphate [1] = variants of: B1; test: self-cleavage kobs at 40 uM GlcN6P; higher = faster cleavage; RNA array
Outline: (§1)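 Sequenced MiSeq chips were the platform: E. coli RNA polymerase transcribed barcoded ribozyme variants on them in situ, and a hybridised Cy3 probe tracked these at 37 °C. After glucosamine-6-phosphate (40 μM to 10 mM) in HEPES/KCl/Mg(OAc)2 buffer was flowed in, tiles were imaged over ~14 h. Signals normalised to baseline and to non-cleaving reference variants were reduced to per-tile medians and fit to one- or two-exponential decays to obtain kobs. kcat and KM were derived through weighted Michaelis–Menten fits across concentrations.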

glucosamine-6-phosphate [2] = variants of: B1; test: self-cleavage kobs at 10000 uM GlcN6P; higher = faster cleavage; RNA array
Outline: as §1

glucosamine-6-phosphate [3] = variants of: B1; test: self-cleavage kobs at 2500 uM GlcN6P; higher = faster cleavage; RNA array
Outline: as §1

glucosamine-6-phosphate [4] = variants of: B1; test: self-cleavage kobs at 160 uM GlcN6P; higher = faster cleavage; RNA array
Outline: as §1

glucosamine-6-phosphate [5] = variants of: B1; test: self-cleavage kobs at 640 uM GlcN6P; higher = faster cleavage; RNA array
Outline: as §1

Variant | self-cleavage kobs at 40 uM GlcN6P (glucosamine-6-phosphate [1]) [s⁻¹] | self-cleavage kobs at 10000 uM GlcN6P (glucosamine-6-phosphate [2]) [s⁻¹] | self-cleavage kobs at 2500 uM GlcN6P (glucosamine-6-phosphate [3]) [s⁻¹] | self-cleavage kobs at 160 uM GlcN6P (glucosamine-6-phosphate [4]) [s⁻¹] | self-cleavage kobs at 640 uM GlcN6P (glucosamine-6-phosphate [5]) [s⁻¹]
A36G G43A C58A G62C C68G | < 1e-05 | < 1e-05 |  |  | 
G37A C50G C58A C67A C71U | 4.39e-05 ± 1.4e-05 |  | 6.21e-05 ± 1.7e-05 |  | 
G35U G40U | < 1e-05 | < 1e-05 | < 1e-05 | < 1e-05 | < 1e-05
A6U A12C U45A A52C | < 1e-05 | < 1e-05 | < 1e-05 |  | 
G7U C11G | < 1e-05 | < 1e-05 | < 1e-05 | < 1e-05 | < 1e-05
C10A G38A A53U C68A | < 1e-05 |  |  |  | 
G7C G51A U56A C67G C68A | 0.000619 ± 0.0002 | 7.59e-05 ± 1.5e-05 |  |  | 
A6C G7C | < 1e-05 | < 1e-05 | < 1e-05 | < 1e-05 | < 1e-05
G32U A36G U45C C68G | < 1e-05 |  |  |  | 
C11U A42C U56A C68A | < 1e-05 | < 1e-05 |  |  | 
G9A A14U A39G | < 1e-05 |  | < 1e-05 |  | 
C8G G29A | < 1e-05 | < 1e-05 | < 1e-05 | < 1e-05 | < 1e-05
C11U G44C G60U | < 1e-05 | < 1e-05 |  |  | 
U47A C50A U54A | < 1e-05 |  |  |  | 
C8A G38C C71A | < 1e-05 |  |  |  | < 1e-05
U31G G44U C61U | < 1e-05 | < 1e-05 |  |  | 
U30C U45G | < 1e-05 |  |  | < 1e-05 | 
A52U G63C | < 1e-05 | < 1e-05 |  | < 1e-05 | < 1e-05
C8A G32U | < 1e-05 | < 1e-05 |  | < 1e-05 | < 1e-05
G7C G40C U54G G62A | < 1e-05 |  |  |  | 
G35A U56A G63A | < 1e-05 | < 1e-05 |  |  | 
U46C G60A | < 1e-05 |  |  | < 1e-05 | < 1e-05
G32C U49G | < 1e-05 |  |  | < 1e-05 | < 1e-05
G9U A15U G41A U55A G60A | < 1e-05 | < 1e-05 |  |  | 
A14C U49A G63A | < 1e-05 |  |  |  | 

Variant | self-cleavage kobs at 40 uM GlcN6P (glucosamine-6-phosphate [1]) [s⁻¹] | self-cleavage kobs at 10000 uM GlcN6P (glucosamine-6-phosphate [2]) [s⁻¹] | self-cleavage kobs at 2500 uM GlcN6P (glucosamine-6-phosphate [3]) [s⁻¹] | self-cleavage kobs at 160 uM GlcN6P (glucosamine-6-phosphate [4]) [s⁻¹] | self-cleavage kobs at 640 uM GlcN6P (glucosamine-6-phosphate [5]) [s⁻¹]
G7U G32A G43A | < 1e-05 | < 1e-05 |  | < 1e-05 | < 1e-05
G32C U56C | < 1e-05 |  |  | < 1e-05 | < 1e-05
C50G U57A G63U A64U | 7.9e-05 ± 2.7e-05 |  |  |  | 
A14G A39U G44A | 0.000196 ± 4.6e-05 | 0.00841 ± 0.0018 |  |  | 
A39C C50G A52C | < 1e-05 |  |  |  | 
A53U G66A C67U | 7.59e-05 ± 1.6e-05 | 0.00355 ± 0.00067 |  |  | 
G38U A52C C61A | < 1e-05 |  |  |  | 
G51C G63A | < 1e-05 |  | < 1e-05 | < 1e-05 | 
G43A G44U U55C | < 1e-05 | < 1e-05 |  |  | 
G44C C68G | < 1e-05 | < 1e-05 | < 1e-05 | < 1e-05 | < 1e-05
C11U A36G C58U C67G | 4.33e-05 ± 2.1e-05 |  |  |  | 
A36C A39G G66A | < 1e-05 | < 1e-05 |  |  | 
U30A U31A | 0.000419 ± 7.6e-05 | 0.0264 ± 0.0056 | 0.0075 ± 0.0013 | 0.00152 ± 0.00033 | 0.00269 ± 0.00057
A6G A15C C16U | < 1e-05 | 4.37e-05 ± 1.5e-05 |  |  | 
C10G G37U A42C | < 1e-05 |  |  |  | 
G7A G29C U57G C70G | 0.000158 ± 7.6e-05 | 0.000678 ± 0.00017 |  |  | 
C8G G13U U30C G43U | < 1e-05 |  |  |  | 
G7U G29A A48G | < 1e-05 | < 1e-05 |  |  | 
A6U C16U U47A G63U | < 1e-05 | < 1e-05 |  |  | 
G44A U65G | < 1e-05 |  |  | < 1e-05 | 
C10G C16G G40U | < 1e-05 |  | < 1e-05 |  | 
A14C G63A | < 1e-05 | < 1e-05 |  |  | < 1e-05
G29A A39U U69A | < 1e-05 |  |  |  | 
C58G C61U | < 1e-05 |  |  |  | 
A12C U56G C68A C70A | < 1e-05 |  |  |  | 

Variant | self-cleavage kobs at 40 uM GlcN6P (glucosamine-6-phosphate [1]) [s⁻¹] | self-cleavage kobs at 10000 uM GlcN6P (glucosamine-6-phosphate [2]) [s⁻¹] | self-cleavage kobs at 2500 uM GlcN6P (glucosamine-6-phosphate [3]) [s⁻¹] | self-cleavage kobs at 160 uM GlcN6P (glucosamine-6-phosphate [4]) [s⁻¹] | self-cleavage kobs at 640 uM GlcN6P (glucosamine-6-phosphate [5]) [s⁻¹]
C11A C34U | < 1e-05 |  |  |  | < 1e-05
U55C G60U C68U | < 1e-05 |  | < 1e-05 |  | 
C8U A64G C68U | < 1e-05 | < 1e-05 |  |  | 
U31G A53G | 0.000276 ± 4.7e-05 | 0.02 ± 0.0035 | 0.00382 ± 0.00096 | 0.000661 ± 0.00018 | 
G7A C67G | < 1e-05 |  | < 1e-05 |  | < 1e-05
A36C A64C | < 1e-05 | < 1e-05 | < 1e-05 |  | < 1e-05
C50G A53U G63U U69A | 0.00027 ± 6.1e-05 | 0.000127 ± 2.4e-05 | 0.000121 ± 3.5e-05 | 0.000207 ± 5.6e-05 | 
G51A U69C | < 1e-05 | < 1e-05 |  |  | 
C16U A42U G62A C67A | < 1e-05 | < 1e-05 |  |  | 
A6G C8G A33G A48U C58U A64U C70A | 3.84e-05 ± 1.7e-05 | 0.000104 ± 3e-05 |  |  | 
C8A G41U | < 1e-05 | < 1e-05 | < 1e-05 | < 1e-05 | < 1e-05
C8U C10U C70G | 5.14e-05 ± 2.4e-05 | 5.37e-05 ± 1.7e-05 | 0.000587 ± 0.00021 | 8.73e-05 ± 2.6e-05 | 0.000103 ± 2.5e-05
A6G C61A | < 1e-05 | < 1e-05 | < 1e-05 |  | 
A33U G44U A52U | < 1e-05 |  | < 1e-05 | < 1e-05 | < 1e-05
G35U A42G | < 1e-05 | < 1e-05 | < 1e-05 | < 1e-05 | < 1e-05
C16A A52C | < 1e-05 | < 1e-05 |  | < 1e-05 | < 1e-05
G32U C34U | < 1e-05 | < 1e-05 |  | < 1e-05 | < 1e-05
G35C U54A | < 1e-05 | < 1e-05 | < 1e-05 |  | < 1e-05
C34A A52G | < 1e-05 | < 1e-05 | < 1e-05 | < 1e-05 | < 1e-05
C10G G43A G62U | < 1e-05 |  |  |  | < 1e-05
A39C A52G G59U U69G | < 1e-05 |  |  |  | 
C10G A48U | < 1e-05 | < 1e-05 | < 1e-05 | < 1e-05 | < 1e-05
C16A G43C | < 1e-05 | < 1e-05 |  |  | < 1e-05
G41A G62U C67G | < 1e-05 |  |  |  | 
G41U C61A | < 1e-05 | < 1e-05 |  | < 1e-05 | < 1e-05

Variant | self-cleavage kobs at 40 uM GlcN6P (glucosamine-6-phosphate [1]) [s⁻¹] | self-cleavage kobs at 10000 uM GlcN6P (glucosamine-6-phosphate [2]) [s⁻¹] | self-cleavage kobs at 2500 uM GlcN6P (glucosamine-6-phosphate [3]) [s⁻¹] | self-cleavage kobs at 160 uM GlcN6P (glucosamine-6-phosphate [4]) [s⁻¹] | self-cleavage kobs at 640 uM GlcN6P (glucosamine-6-phosphate [5]) [s⁻¹]
C11A C16G U54A C68A | 6.79e-05 ± 2.4e-05 | 5.11e-05 ± 2e-05 |  |  | 
G43U G51A U65G G66A | < 1e-05 |  |  |  | 
C34G G44U | < 1e-05 | < 1e-05 |  | < 1e-05 | < 1e-05
C16U G40A | 0.000204 ± 2e-05 | 0.00622 ± 0.00083 | 0.00398 ± 0.00098 | 0.000448 ± 7e-05 | 0.000996 ± 0.00017
U31C A39U U54C C71U | 5.15e-05 ± 1.1e-05 | 0.00213 ± 0.00023 | 0.000671 ± 0.00024 |  | 
A15U G43A G44U G62A | < 1e-05 | < 1e-05 |  |  | 
G9U G37A | < 1e-05 |  | < 1e-05 | < 1e-05 | 
G13U A33C | < 1e-05 |  | < 1e-05 | < 1e-05 | < 1e-05
U30A G51U U54A | < 1e-05 | < 1e-05 |  |  | 
G35C C58A C71A | < 1e-05 | < 1e-05 |  |  | 
A33G G41U | < 1e-05 | < 1e-05 |  | < 1e-05 | < 1e-05
G13C G29U G32A | 7.61e-05 ± 2.4e-05 | 0.00214 ± 0.00069 |  |  | 
U54A C67G | 8.43e-05 ± 1.3e-05 | 0.00147 ± 0.00055 | 0.000126 ± 2.2e-05 | 0.000213 ± 4.1e-05 | 0.000297 ± 5.3e-05
G13A U45C A64G | < 1e-05 |  |  |  | 
G9C G43A G44U C70G | < 1e-05 | < 1e-05 |  |  | 
G13C U49C | < 1e-05 | < 1e-05 | < 1e-05 |  | 
A14C A53C G62C C68G | < 1e-05 | < 1e-05 |  |  | 
C11U A52U G60C | < 1e-05 | < 1e-05 |  |  | < 1e-05
C10G A42G | < 1e-05 |  |  | < 1e-05 | < 1e-05
G7C G9C U31C G40A | < 1e-05 | < 1e-05 |  |  | 
G9U A64C | < 1e-05 | < 1e-05 |  | < 1e-05 | < 1e-05
G44C C70G | < 1e-05 | < 1e-05 | < 1e-05 | < 1e-05 | < 1e-05
